Results from article PMC4267619.

What was measured:
YT521-B YTH domain [1] = target: T1, YT521-B YTH domain (Rattus norvegicus, UniProt Q9QY02 347-502); experiment: ITC; 20 C; 125 uM RNA into 10 uM protein; 25 mM NaH2PO4, 25 mM NaCl, 10 mM beta-mercaptoethanol, pH 7; ITC and NMR titrations at 20 C, structure at 30 C
YT521-B YTH domain [2] = target: T1, YT521-B YTH domain; experiment: ITC; 20 C; 410 uM RNA into 14 uM protein; 25 mM NaH2PO4, 25 mM NaCl, 10 mM beta-mercaptoethanol, pH 7; ITC and NMR titrations at 20 C, structure at 30 C

Binder	Kd (YT521-B YTH domain [1])	Kd (YT521-B YTH domain [2])
UGACAC (ssRNA, N6-methyladenosine at position 3) [5'-UGm6ACAC-3']	100 nM	
UGACAC (ssRNA) [5'-UGACAC-3']		5000 nM
